B1: REGN-10987 (Imdevimab) (antibody, V domains shown)
VH: QVQLVESGGGVVQPGRSLRLSCAASGFTFSNYAMYWVRQAPGKGLEWVAVISYDGSNKYYADSVKGRFTISRDNSKNTLYLQMNSLRTEDTAVYYCASGSDYGDYLLVYWGQGTLVTVSS
VL: QSALTQPASVSGSPGQSITISCTGTSSDVGGYNYVSWYQQHPGKAPKLMIYDVSKRPSGVSNRFSGSKSGNTASLTISGLQSEDEADYYCNSLTSISTWVFGGGTKLTVL

Biological target: SARS CoV-1 RBD (SARS-CoV-1)
Test: ELISA

Molecule	EC50
REGN10933 (Casirivimab) (antibody)	14 nM
B1	> 100 nM

Source: PMC8920075
